Laboratory results as given in US20200255527.

Legend:
FH-AGO2-K726R = FH-AGO2-K726R (UniProt Q9UKV8)
[1] = target: FH-AGO2 mono-methylated at K726 (ectopically expressed in MCF-7 cells with LSD1 inhibited) (UniProt Q9UKV8)
FH-AGO2 mono-methylated at K726 (ectopically expressed in MCF-7 cells with LSD1 inhibited), sequence (Q9UKV8 whole entry): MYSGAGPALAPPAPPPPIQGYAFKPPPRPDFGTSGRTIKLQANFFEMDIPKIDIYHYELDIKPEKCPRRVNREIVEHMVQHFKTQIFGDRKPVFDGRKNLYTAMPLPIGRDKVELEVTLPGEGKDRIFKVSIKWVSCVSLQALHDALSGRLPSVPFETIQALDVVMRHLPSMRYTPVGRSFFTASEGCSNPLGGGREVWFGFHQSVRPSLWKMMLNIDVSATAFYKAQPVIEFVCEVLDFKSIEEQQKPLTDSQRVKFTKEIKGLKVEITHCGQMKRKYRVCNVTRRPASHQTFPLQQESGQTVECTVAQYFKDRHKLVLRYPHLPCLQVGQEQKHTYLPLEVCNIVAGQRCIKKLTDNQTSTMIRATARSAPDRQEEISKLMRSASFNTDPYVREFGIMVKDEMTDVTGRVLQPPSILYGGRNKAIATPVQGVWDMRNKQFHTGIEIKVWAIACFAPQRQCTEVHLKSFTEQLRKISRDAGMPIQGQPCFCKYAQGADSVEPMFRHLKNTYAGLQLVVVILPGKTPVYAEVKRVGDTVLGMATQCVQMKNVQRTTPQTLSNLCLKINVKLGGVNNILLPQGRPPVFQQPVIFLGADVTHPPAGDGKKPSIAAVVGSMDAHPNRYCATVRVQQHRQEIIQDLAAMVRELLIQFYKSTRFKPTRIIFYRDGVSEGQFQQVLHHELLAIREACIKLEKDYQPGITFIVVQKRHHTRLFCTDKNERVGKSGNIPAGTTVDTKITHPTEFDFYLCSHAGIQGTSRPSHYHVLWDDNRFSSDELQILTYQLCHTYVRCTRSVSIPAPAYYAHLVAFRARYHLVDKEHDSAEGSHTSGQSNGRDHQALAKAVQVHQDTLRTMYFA

FH-AGO2-K726R, sequence (Q9UKV8 whole entry K726R): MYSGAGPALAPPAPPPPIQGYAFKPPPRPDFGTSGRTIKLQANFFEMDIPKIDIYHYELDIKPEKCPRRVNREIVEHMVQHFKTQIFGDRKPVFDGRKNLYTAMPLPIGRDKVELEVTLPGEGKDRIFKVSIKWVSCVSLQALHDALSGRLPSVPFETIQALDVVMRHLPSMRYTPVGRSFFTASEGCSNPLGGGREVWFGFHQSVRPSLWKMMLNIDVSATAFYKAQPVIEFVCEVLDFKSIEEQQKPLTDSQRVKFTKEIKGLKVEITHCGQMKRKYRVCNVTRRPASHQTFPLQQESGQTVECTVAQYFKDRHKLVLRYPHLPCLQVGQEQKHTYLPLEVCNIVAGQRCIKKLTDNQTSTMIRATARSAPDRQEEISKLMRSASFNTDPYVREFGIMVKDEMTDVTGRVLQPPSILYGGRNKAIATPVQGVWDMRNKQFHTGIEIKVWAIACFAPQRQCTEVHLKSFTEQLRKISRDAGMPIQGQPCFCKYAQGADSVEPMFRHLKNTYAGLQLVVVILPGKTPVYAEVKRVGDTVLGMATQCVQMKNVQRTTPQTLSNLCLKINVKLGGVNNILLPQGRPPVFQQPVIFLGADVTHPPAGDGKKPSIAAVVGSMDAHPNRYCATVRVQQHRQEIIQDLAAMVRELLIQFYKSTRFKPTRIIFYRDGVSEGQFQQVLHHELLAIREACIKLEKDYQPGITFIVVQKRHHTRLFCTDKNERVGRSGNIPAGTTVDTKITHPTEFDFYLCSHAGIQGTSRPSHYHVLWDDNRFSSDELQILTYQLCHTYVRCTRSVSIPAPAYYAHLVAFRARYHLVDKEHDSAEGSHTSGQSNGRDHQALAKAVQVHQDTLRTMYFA

Substance	K726me1 level in in vitro demethylation assay (FH-AGO2-K726R)	K726me1 level on FH-AGO2 in in vitro demethylation assay [1]
FH-LSD1 (Flag-HA-tagged LSD1 stably expressed in MCF-7 cells)	had no observable effects on FH-AGO2-K726R	FH-LSD1 but not FH-LSD1-K661A decreased K726me1 level on FH-AGO2
FH-LSD1-K661A (catalytically compromised LSD1)	–	FH-LSD1 but not FH-LSD1-K661A decreased K726me1 level on FH-AGO2
